In this data set the target is T1, SC35 (GST-SC35) (Populus tomentosa, UniProt A0AAD6QWB7 1-302).
T1 sequence: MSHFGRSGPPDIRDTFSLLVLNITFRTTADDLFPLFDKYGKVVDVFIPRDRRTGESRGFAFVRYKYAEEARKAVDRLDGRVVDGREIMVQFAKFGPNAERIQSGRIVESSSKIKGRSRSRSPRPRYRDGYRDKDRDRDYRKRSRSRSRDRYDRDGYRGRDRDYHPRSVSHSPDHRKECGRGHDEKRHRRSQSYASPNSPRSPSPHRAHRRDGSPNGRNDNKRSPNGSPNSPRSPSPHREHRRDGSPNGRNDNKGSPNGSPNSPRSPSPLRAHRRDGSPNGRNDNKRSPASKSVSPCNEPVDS
The experiment in a line: EMSA. In general terms: In EMSA bound probe runs differently from free probe, usually more slowly.

B1: Mutation-Probe2 (ssRNA)
RNA: UUAGAGAGAGUCCUUAAUCUGGGUUUGGUU
B1: the binding result is “no binding”.

B2: Mutation-Probe1 (ssRNA)
RNA: CAUUAUGUUGACCUUAAUCAAGAUAAGGUG
For the molecule B2, the binding result is given as “no binding”.

B3: Probe2 (ssRNA)
RNA: UUAGAGAGAGUGGAAUUAGUGGGUUUGGUU
With B3, the binding result is reported as “binds”.

B4: Probe1 (ssRNA)
RNA: CAUUAUGUUGAGGAAUUAGAAGAUAAGGUG
Turning to B4, the binding result is “binds”.

Source of the values: publication PMC12328635.
